The target in the experiment is TSH receptor on mouse alveolar macrophage AM cells (AMJ2-C8) (mouse) (UniProt P47750). The experiment can be described thus: cell-based or functional assay.
Sequence of UniProt P47750 (P47750 22-764): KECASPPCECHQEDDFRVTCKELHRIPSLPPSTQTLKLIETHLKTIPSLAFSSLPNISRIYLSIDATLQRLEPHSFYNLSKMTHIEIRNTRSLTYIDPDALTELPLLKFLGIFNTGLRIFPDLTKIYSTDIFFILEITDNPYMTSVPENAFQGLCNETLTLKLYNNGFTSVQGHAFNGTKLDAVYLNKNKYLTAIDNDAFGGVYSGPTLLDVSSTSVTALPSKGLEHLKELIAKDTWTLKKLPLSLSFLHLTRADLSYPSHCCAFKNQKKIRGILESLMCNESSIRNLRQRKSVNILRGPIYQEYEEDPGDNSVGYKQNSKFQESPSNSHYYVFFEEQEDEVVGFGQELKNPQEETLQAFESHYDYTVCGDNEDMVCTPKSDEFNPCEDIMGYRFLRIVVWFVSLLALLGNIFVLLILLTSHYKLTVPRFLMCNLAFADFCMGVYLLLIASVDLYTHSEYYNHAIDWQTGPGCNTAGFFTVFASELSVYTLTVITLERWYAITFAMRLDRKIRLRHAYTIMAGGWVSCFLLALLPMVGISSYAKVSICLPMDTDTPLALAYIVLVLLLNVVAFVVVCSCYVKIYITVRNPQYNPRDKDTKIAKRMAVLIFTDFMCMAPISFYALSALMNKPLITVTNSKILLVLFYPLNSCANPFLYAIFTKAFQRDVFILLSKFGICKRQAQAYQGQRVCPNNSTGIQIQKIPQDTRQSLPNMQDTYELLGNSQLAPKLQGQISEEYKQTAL

“recombinant mouse native TSHβ (from UniProt P12656 21-138) (ligand)” showed a cAMP response of AM cells; concentration of peak activity of 0.1 nM.

As for “recombinant mouse novel TSHβ splice variant (from UniProt P12656 55-138) (ligand)”, the cAMP response of AM cells; concentration of peak activity was 1000 nM.

These data come from patent US20110052591A1.
